In general, koff refers to the rate constant with which the complex falls apart. In general, kon refers to the second-order rate constant of association. A word on the Kd: it is the equilibrium constant for the complex coming apart.

The target of test [1] is T1, Recombinant human HGF R/c-Met Fc chimera (R&D systems, cat no. 358-MT/CF) (human, UniProt P08581 25-932).
T1 construct: Bought reagent; also called human c-Met-Fc; human-c-Met; not shown: Fc part of the purchased chimera
Kind of test: phage ELISA, c-Met 100 ng coated, anti-M13-HRP detection, A450. A general note: In an ELISA, binding on a coated surface is turned into a signal by an enzyme label.

Test [2] deals with T1, Recombinant human HGF R/c-Met Fc …. Briefly: SPR (BIAcore), human c-Met-Fc immobilized on chip, antibody flowed. How it is done:
(§1) The binding capacity to c-Met of the antibody was measured by BIAcore (GE Healthcare). According to the manufacturer's manual, sensorgrams were secured by immobilizing mouse-c-Met and human-c-Met (R&D system) on a CMS chip (GE Healthcare, Sweden), and flowing various amounts of antibodies. Rate constants kon and koff were measured on the basis of the sensorgrams secured at each concentration, and Kd was calculated from the ratio of rate constants (koff/kon) (Table 3). As a result, 1E4-IgG had high binding capacity with mouse-c-Met as well as binding capacity with human-c-Met (FIG. 8).
(SPR reads the build-up and loss of mass on a sensor chip optically.)

For test [3], the target named is T2, mouse c-Met-Fc (mouse, UniProt P16056 25-931, limits assumed).
T2 construct: Bought reagent (R&D system); also called mouse-c-Met (R&D system); not shown: Fc part
Briefly: SPR (BIAcore), mouse c-Met-Fc immobilized on chip, antibody flowed. As to the method: as §1

The target in test [4] is T1, Recombinant human HGF R/c-Met Fc …. Briefly: SPR (BIAcore), human c-Met-Fc immobilized on chip, antibody flowed; koff/kon. As to the method:
as §1

In test [5] the target is T2, mouse c-Met-Fc. Briefly: SPR (BIAcore), mouse c-Met-Fc immobilized on chip, antibody flowed; koff/kon. How it is done: as §1

T1 sequence (P08581 25-932, change not shown): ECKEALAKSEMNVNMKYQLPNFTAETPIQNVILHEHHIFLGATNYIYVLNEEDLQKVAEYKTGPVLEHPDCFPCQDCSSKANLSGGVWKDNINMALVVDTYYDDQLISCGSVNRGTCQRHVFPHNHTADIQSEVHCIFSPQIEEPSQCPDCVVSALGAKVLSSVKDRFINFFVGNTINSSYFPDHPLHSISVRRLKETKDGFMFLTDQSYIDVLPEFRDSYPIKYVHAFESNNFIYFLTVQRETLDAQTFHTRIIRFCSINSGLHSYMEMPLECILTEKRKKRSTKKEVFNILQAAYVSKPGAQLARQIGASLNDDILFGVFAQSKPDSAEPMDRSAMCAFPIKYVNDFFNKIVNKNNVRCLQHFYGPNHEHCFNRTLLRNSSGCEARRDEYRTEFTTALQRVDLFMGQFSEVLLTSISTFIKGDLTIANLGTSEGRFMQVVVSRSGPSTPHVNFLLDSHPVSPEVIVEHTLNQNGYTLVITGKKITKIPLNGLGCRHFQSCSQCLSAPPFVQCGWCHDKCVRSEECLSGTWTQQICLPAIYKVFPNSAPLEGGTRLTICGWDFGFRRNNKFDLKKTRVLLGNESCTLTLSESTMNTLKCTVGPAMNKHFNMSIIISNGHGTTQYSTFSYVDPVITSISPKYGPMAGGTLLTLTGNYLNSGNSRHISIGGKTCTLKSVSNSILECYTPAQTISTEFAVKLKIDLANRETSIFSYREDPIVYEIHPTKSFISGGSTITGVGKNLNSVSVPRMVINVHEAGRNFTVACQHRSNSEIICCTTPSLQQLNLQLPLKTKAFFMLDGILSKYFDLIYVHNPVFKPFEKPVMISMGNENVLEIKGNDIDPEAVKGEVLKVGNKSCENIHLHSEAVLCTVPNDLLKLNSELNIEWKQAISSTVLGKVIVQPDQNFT
T2 sequence (P16056 25-931 limits assumed): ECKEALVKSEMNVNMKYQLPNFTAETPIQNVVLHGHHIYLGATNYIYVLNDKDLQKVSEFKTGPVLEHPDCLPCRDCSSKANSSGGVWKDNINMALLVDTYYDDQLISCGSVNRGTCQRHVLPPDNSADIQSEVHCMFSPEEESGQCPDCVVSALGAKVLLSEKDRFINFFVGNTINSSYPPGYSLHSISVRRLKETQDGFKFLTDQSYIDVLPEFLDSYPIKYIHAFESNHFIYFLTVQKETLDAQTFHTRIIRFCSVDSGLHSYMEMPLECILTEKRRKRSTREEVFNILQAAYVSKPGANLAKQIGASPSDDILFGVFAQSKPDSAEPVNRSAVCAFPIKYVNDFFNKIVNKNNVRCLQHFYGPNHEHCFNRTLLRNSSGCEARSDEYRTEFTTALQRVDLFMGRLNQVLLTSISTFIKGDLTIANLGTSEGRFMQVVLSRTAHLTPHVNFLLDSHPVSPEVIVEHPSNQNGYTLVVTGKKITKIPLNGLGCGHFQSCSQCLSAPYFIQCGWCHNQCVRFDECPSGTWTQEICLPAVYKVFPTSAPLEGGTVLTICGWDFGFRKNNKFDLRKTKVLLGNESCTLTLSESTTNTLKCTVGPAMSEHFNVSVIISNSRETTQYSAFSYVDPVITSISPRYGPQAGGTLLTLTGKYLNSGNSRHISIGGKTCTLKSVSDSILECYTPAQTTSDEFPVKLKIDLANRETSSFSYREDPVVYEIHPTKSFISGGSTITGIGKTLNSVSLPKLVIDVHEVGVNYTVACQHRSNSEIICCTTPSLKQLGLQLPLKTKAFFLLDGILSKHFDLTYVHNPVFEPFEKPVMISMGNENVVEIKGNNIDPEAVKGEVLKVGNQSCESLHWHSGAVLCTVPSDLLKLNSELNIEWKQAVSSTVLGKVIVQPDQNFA

B1: 1E4-ScFv (scFv)
scFv: QVQLVQSGAEVKKPGESLRISCQGSGYSFPTHWITWVRQMPGKGLEWMGTIDPTDSYNFYGPSFQGHVTISADSSSSTAYLQWSSLKASDTAMYYCARDGNYYDSRGYYYDTFDMWGQGTLVTVSSGLGGLGGGGSGGGGSGGSSGVGSDIQMTQSPSFLSASVGDRVTITCRASQGISTYLAWYQQKPGTAPKLLIYSASTLESGVPSRFSGSGSGTDFTLTISSLQPEDSATYYCQQADSFPLTFGGGTKVEIKRGGASLVE
notes: also called soluble 1E4-ScFv; not shown: tags implied by Ni-NTA purification and anti-Myc detection
As to B1, the binding result in test [1] is “binds”.

B2: 1E4-IgG (antibody, V domains shown)
VH: QVQLVQSGAEVKKPGESLRISCQGSGYSFPTHWITWVRQMPGKGLEWMGTIDPTDSYNFYGPSFQGHVTISADSSSSTAYLQWSSLKASDTAMYYCARDGNYYDSRGYYYDTFDMWGQGTLVTVSS
VL: DIQMTQSPSFLSASVGDRVTITCRASQGISTYLAWYQQKPGTAPKLLIYSASTLESGVPSRFSGSGSGTDFTLTISSLQPEDSATYYCQQADSFPLTFGGGTKVEIKR
notes: also called 1E4 antibody; anti-c-Met IgG (1E4-IgG)
Consider B2, for which the off-rate constant (koff) in test [2] is 0.000807 s⁻¹; in test [3], 0.00159 s⁻¹. In addition, the on-rate constant (kon) came out at 2.71e+06 M⁻¹ s⁻¹ in test [2] and 2.58e+06 M⁻¹ s⁻¹ in test [3]. Further, the values for the equilibrium dissociation constant (Kd) in test [4] and in test [5] were 298 pM and 615 pM, respectively.
